Data from the nanobody polyreactivity screen of Harvey et al. (2022).

Test: yeast display, Sf9 membrane polyspecificity reagent, FACS + sequencing; frameworks hold sequencing errors
Outline: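 Galactose induction of a Saccharomyces cerevisiae BJ5465 synthetic nanobody display library ran 36–48 hours. The cells were then stained for 1 hour at 4 °C with 10% biotinylated, detergent-solubilized Sf9 membrane reagent, pulled down on streptavidin microbeads and FACS-sorted into low and high (top ~1%) gates on expression and reagent-binding fluorescence. Labels for polyreactivity follow the gate of origin.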

Row | Sequence | polyreactivity (PSR sort gate)
1 | QVQLVESGGGLFQAGGSLRLSCAASGSIFAWYAMGWYRQAPGKERELVAVITSGGSTNYADSVKGRFTISRDNEKNTVYLQMNSLKPEDTAVYYCAAGSYYSWYPFDYWGQGTQVTVSS | low polyreactivity
2 | QVQLVESGGGLVQAGGSLRLSCAASGSIFTQYVMGWYRQAPGKERELGAAITWSGGNTYYADSVKGRFTISRDNAKNTVYLQMNSLKPEDTAVYYCAAYKPYSKYNYWGQGTQVTVSS | high polyreactivity
3 | QVQLVESGGGLVQAGGSLRLSCAASGFTFDSYDMGWSRQAPVKEREVVAAITWSGGSTYYADSVKGRFTISRDNAKNTVYLQMNSLKQEDTAVYYCNADTGTYWVPWYHDGYDYWGQGTQVTVSS | low polyreactivity
4 | QVQHVETGGGLVQAGGSLRLSCAASGSTFVLYAKGWYRQAPGKERELVAAITWSGDDTYYADSVKGRFTISRDNAKNTVYLQMISLKPEDTAVYYCAAAYAYWGQGTQVTVSS | low polyreactivity
5 | QVQLVESGGVLVQAGCSLRLSCAASGRTIPWYTMGWYRQAPRKERELVAAISNGGSTYYADSVKGRFTISRDNAKNTVYLQMNSLIPEDTAVYYCNSLVYKYIYNYDYWGQGTQVTVSS | high polyreactivity
6 | QVQLVESGGGLVQAGGSLRLSCAASGRIFIVYAMGRYRQAPGKERELVAAISWNGGRTYYADSVKGRFTISRDNAKNTVYLQMNSLKPEDTAVYYCNAVALYPYTTYDYWGQGTQVTVSS | high polyreactivity
7 | QVQLVESGGGLVQAGGSLRLICPASGSIFYYYAMGWYRQAPGKERELVAAISYSDDDTYYADSVKGRFTISRDNAKNTVYLQMNSLKPEDTAVYYCAAEFTIAWSYTMDYWVQGTQVTVSS | high polyreactivity
8 | QVQLVESGGGLVQAAGSLRLSCAASGITLYWYAMGWSRQAPGKERELVATISRRGGTTYYADSVKGRFTISRDNAKNTVYLQMNSLKPEDTAVYYCAKAPDTQTSWSRQEGNYWGQGTQVTVSS | low polyreactivity
9 | QVQLVESGGGLVQAGGSLRLSCAASGGTFSPNTMGWYRQAPGKERELVAAISSSGSTSYADSVKGRFTISRDNAKNTVYLQMNSLKPEDTAVYYCNADDTISYYASGFDNYHYWGQGTQVTVSS | low polyreactivity
10 | QVQLVESGGGLVQAGGSLRLSCAASGRTFIWYAMGWYRQAPGKEREFVAAIRSSGGRTYYADSVKGRFTISRDNAKNTVYLQMNSLKPEDTAVYYCAKEAYYGWYWYGYWGQGTQVTVSS | high polyreactivity
11 | QVQLVESVGGLVQAGGSLRLSCAASGSIFEQNAMGWYRQAPGKERELVAGINEGGGSTYYADSVKGRFTISRDNAKNTVYLQMNSLKPEDTAVYYCAAEYYDDFSYGWYDYWGQGTQVTVSS | high polyreactivity
12 | QVQLVESGGGLVQAGGSLRLSCAASGFTIRSYVMGWYRQAPGKERELVAAIRRSGGSTYYADSVKGRFTISRDNAKNTVYLQMNSLKPEDTAVYYCAVGARWYWSYYWGQGTQVTVSS | high polyreactivity
13 | QVQLVESGGGLVQAGGSLRLSCAASGLTFRVYAMGWYRQEPGKERELVASISRTGSTTYADSVKGRFTISRDNAKNTVYLQMNSLKPEDTAVYYCNARYYVLLWDSLAREYWGQGTQVTVSS | high polyreactivity
14 | QVQLVESGVGLVQAGGSLRLSSAASGSISYSYAMGWYRQAPGKERELVAAITWVGDSTYYADSVKGRFTISRDNAKNTVYLQMNRQKPEDTAVYYCAADLRFTYPVYRHGGGYDYWGQGTQVTVSS | low polyreactivity
15 | QVQLVESGGGLVQAGGSLRLSCAASGFTFTIYAMGWYRQAPGKERELVATISGRAGRTYYADSVKGRFTISRDNAKNTVYLQMNSLKPEDTAVYYCNAGQWRYPGLYYYWGQGTQVTVSS | high polyreactivity
16 | QVHLVESGGGLVQAGGSLRLSCAASGSIFFGYAKGWYRQAPGKERELVAGMDTGGSTDYADSVTGRFTISRDNAKNTVYLQMNSLKPEDTAVYYWATYSYGAVTVDYWGQGTQVTVSS | low polyreactivity
17 | QVQLVESGGGLVQAGGSLRLTSDASGFTFRSNAMGWYRQAPGKERELVAAITSRGGSTYYADSVKGRFTISRDYAKNTVYLQMNSLKPEDTAVYYCAADGRSRKFDYWGQGTQVTVSS | high polyreactivity
18 | QVQLVESGGGVVQAGGSLRLSCAASGSIFNGYAMGWYRQAPGNEWELVAAISGNGGRTYYADSVKGRFTFSRDYAKNTVYLQMNSLKPEETADYYCNKVSGYYVDYWGQGSQVTVSS | high polyreactivity
19 | QVQLVESGGGLVHAGGSLRLSCAASGGTLYRYAMGWYRQAPGKERELVAGISSSGGRTYYADSVKGRFTISRDNAKNTVYLQMNSLKPEDTAVYYCAKYWVSSYDYWGQGTQVTVSS | high polyreactivity
20 | QVQLVESGGGLVQAGGSLRLSCAPSGFTFSPYTMGWYRQAPGKETELVATIRYDGTSTYYADSVKGRFTISRDNAKNTVYLQMNSLKPEDTAVYYCNADGSAQDIAELDYWGQGTQVTVSS | low polyreactivity
21 | QVQLVESGGGLVQAGGSLRLSCAASGITFRDYAMGWYRQAPGKERELVAAISTRGVRTYYADSVKGRFTISRDNAKNTVYLQMNSLKPEDTAVYYCAARSVTYWWVGYEFYYWGQGTQVTVSS | high polyreactivity
22 | QVQLVESGGGLDQAEGSLRLSCAASGSKINHYARGWYRQAPRKERELVAAITKSGGSTYADSVKGRFTISRDNAKNTVYLKMNSRKPEDTAVYYCAAGRRIYGTKGRGDYWGQGTQVTVSS | low polyreactivity

Row | Sequence | polyreactivity (PSR sort gate)
23 | QVQIVESGGRLVQAGGSLRLSCAASGSIFVWYAMGWYRQAPGKERELVSRITSGGRTNYADSVKGRFTISRDNAKNTVYLQMNSLKPEDTAVYYCAAGRVSWSPYYYWGQATQVTVSS | high polyreactivity
24 | QVQLVESGGGLVQAGGSLRLSCAASGSIFRYYTMGWDRQAPGKERELVAAISWSGGRTYYADSVKGRFTISRDNAKNTVYLQMNSLKPEDTAVYYCAAVRPYYYPLPTVPNLPYDYWGQGTQVTVSS | high polyreactivity
25 | QVQLVESGGGLVQAGGSLRLSCAASGSTFVTYAMGRYRQAPGKERELVAAISSAGSTNYADSVKGRFTISRDNAKNTVYLQMNSLKPEDTAVYYCARDIQDTYEFDYWGQGTQVTVSS | low polyreactivity
26 | QVQLVESGGGLVQAGGSLRLSCAASGRIFYRYAMGWYRQAPGKERELVAAISRNGGSTNYADSVKGRFTISRDNAKNTVYLQMNSLKPEDTAVYYCAARPPTTRPYDYDYWGQGTQVTVSS | high polyreactivity
27 | QVQLVESGGGLVQAGGSLRLSCAASGLTFEWYAMGWYRQAPGKERELVAAISWNGGSTYYADSVKGRFTISRDNAKNTVYLQMNSLKPEDTAVYYCATSSPRRYYWGQGTLVTVSS | high polyreactivity
28 | HVQLVESGGGLVQAGGCLRLSCAASGIIFLYNAMGWYRQAPGKERELVATITWSGGSTYYADSVKGRFTISRDNAKITVYLQMKSLKPEDTAVYYCAADYYYGYEFGYWGQGTQVTVSS | low polyreactivity
29 | QVQLVESGGGLVQAGGSLRLSCAASGIIFRSYTMGWYRQAPGKERELVASITRSGGITYYADSVKGRFTISRDNAKNTVYLQMNSLKPEDTAVYYCAARHRYYYQYRSDYWGQGTQVSVSS | high polyreactivity
30 | QFQLVESGGGLVQAGGSLRLSCAASGIIFDYNAMGWYRQAPGKERELVAAITRGGSTYYADSVNGRFTISRDNAKNTVYVQMTSLKPEDTAVYYCKAVLPVHWSWYDYWGQGTQVTVSS | low polyreactivity
31 | QDQLVESGGGLVQAGGSLRLSCAASGSTFHLYAMGWYRQAPGKERELVAAITRRGSDTYYADSVKGRFTISRDNAKNTVYLQMNSLKPEDTAVYYCAARDRHPVWGQGTQVTVSS | low polyreactivity
32 | QVQLVESGGGLVQAGGSLRLSCAASGRILAPYVMGWYRQAPGKERELVAAISRSTGRTYYADSVKGRFTISRDNAKNTVYLQMNSLKPEDTAVYYCNRDVRVSLMGYWGQGTQVTVSS | high polyreactivity
33 | QVQLVESGGGLVQAGGSLRLSCAASGIISSFYAMGWYRQAPGKERELVAAINWSGDSTYYADSVKGRFTISRDNAKNTVYLQMNSLKPEDTAVYYCAADYYGFYDEHDYWGQGTKVTVSS | low polyreactivity
34 | QVQLVESGGGLDQAGGSLRLSCAASGSIFGYYAMGWYRQAPGKERELVAAISRSGGSTYYADSVKGRFTISRDNAKNTVYLQMNSLKPEDTAVYYCAARPPYRVGIVPLGRREYYWGQGTQVTVSS | high polyreactivity
35 | QVQLVESGGGLVQAGGSLRLSWAASGITFSRNAMGWYRQAPGKESELVATITSGGSTNYADSVKGRFTISRDHAKNTVYLQMNSLKPEDTAVYYCNAVWNNFISGRSYDYWGQGTQVTVSS | low polyreactivity
36 | QVQLVESGGGLVQAGGSLRLSCAASGRTFGYYAMGWYRQAPGKERELVAAISSRSSTTYYADSVKGRFTISRDNAKNTVYLQMNSLKTEDNAVYYCNVAYGEWKTFDYWGQGTQVTVSS | high polyreactivity
37 | QVQLIESGGGLVQAGGSLRLSCAASGSIFAANAMGWYRQAPGKEREFVASISYTGASTYADSVKGRFTISRDNAKNTVYFQMNSLKPEDTAVYYCAKDGYWTGLDPYYYWGQGTQVTVSS | low polyreactivity
38 | QGQIVESWGGLVQAGGSLRLSCAASGTFFTYMGWYRQAPGKERELVAAIRNGGSTNYADSVKGRCTISGDNAKNTVYLQMHSLKPEDTAVYYCAARVTYSRGYRGGSRTKYDSWGQGTQVTVSS | low polyreactivity
39 | QVQLVESGGGLVQAGGSLRLSCAASGNIFYTNAMGWYRQAPGKERELVATISRSVGSTYYADSVKGRFTISRDNAKNTVYLQMNSLKPEDTAVYYCAASRLLSALTAYSWGFNYWGQGSQVTVSS | high polyreactivity
40 | QVQLVESGGGLVQAGGSLRLSCAASGRIFGYYAMGWYRQAPGKERELVAAIRRSGGSTYADSVKGRFTISRDNAKNTVYLQMNSLKPEDTAVYYCAAGHYWFTKGYHTLYDMDYWGQGTQVTVSS | high polyreactivity
41 | QVQLVESGGGLVQAGGSLRLSCAASGIIFVRYAMGWYRQAPGKERELVAAITWRGSTYYADSVKGRFTISRDNAKNTVYLQMNSLKPEDTAVYYCAAVKPHYTSFRDYYCGQGTQVTVSS | high polyreactivity
42 | QVQLVESGGGLVQAGGSRRLSCAASGRTFDSYTMGWYRQAPGKERELVADITFTGGSTYYADSVKGRFTISRDNAKNTVYLQMNSLKPDDTAVYYCNADREYKWYFRYDYWGQGTQVTVSS | low polyreactivity
43 | QVQLVESGGGLVQAGGRLRLSCAASGRIFVHNAMGWYRQAPGKERELVAAISQNGGRTYYADSVKGRFTISRDNAKNTVYLQLNSLKPEDTAVYYCAAGQARAGLIGGYWGQGTQVTVSS | high polyreactivity
